Values belong to the binder of their own block, whether it stands above or below them. Where no end group is shown, it is not given here.
Key:
[1] = target: the molecule itself; test: single molecule photobleaching counting (smPB, TIRF microscopy); living HEK293 cells with low expression; bleaching steps of confined spots at the cell surface counted and fitted to a binomial distribution (eGFP folding probability 72%); CaM-eGFP counted in spots positive for mCherry-TRPV5, in presence and absence of extracellular Ca2+
[2] = target: T1, CaM agarose resin (UniProt P62157 1-149); test: pull-down; competition: 0-100 µM TRPV5 peptide added to the CaM agarose pull-down of GFP-TRPV5 lysate; TRPV5 band semi-quantified and fitted (non-linear sigmoidal) against log peptide concentration; Ca2+ concentration not stated; settings: both partners purified
T1 construct: calmodulin coupled to agarose; Immobilised on agarose by the supplier; source: bought: Sigma Aldrich (CaM agarose resin)

B1: GFP-TRPV5 (natural protein, rabbit, UniProt Q9XSM3 1-730, looked up)
chain: MGACPPKAKGPWAQLQKLLISWPVGEQDWEQYRDRVNMLQQERIRDSPLLQAAKENDLRLLKILLLNQSCDFQQRGAVGETALHVAALYDNLEAATLLMEAAPELAKEPALCEPFVGQTALHIAVMNQNLNLVRALLARGASVSARATGAAFRRSPHNLIYYGEHPLSFAACVGSEEIVRLLIEHGADIRAQDSLGNTVLHILILQPNKTFACQMYNLLLSYDEHSDHLQSLELVPNHQGLTPFKLAGVEGNTVMFQHLMQKRKHVQWTCGPLTSTLYDLTEIDSWGEELSFLELVVSSKKREARQILEQTPVKELVSFKWKKYGRPYFCVLASLYILYMICFTTCCIYRPLKLRDDNRTDPRDITILQQKLLQEAYVTHQDNIRLVGELVTVTGAVIILLLEIPDIFRVGASRYFGQTILGGPFHVIIITYASLVLLTMVMRLTNMNGEVVPLSFALVLGWCSVMYFARGFQMLGPFTIMIQKMIFGDLMRFCWLMAVVILGFASAFHITFQTEDPNNLGEFSDYPTALFSTFELFLTIIDGPANYSVDLPFMYCITYAAFAIIATLLMLNLFIAMMGDTHWRVAQERDELWRAQVVATTVMLERKMPRFLWPRSGICGYEYGLGDRWFLRVENHHDQNPLRVLRYVEAFKCSDKEDGQEQLSEKRPSTVESGMLSRASVAFQTPSLSRTTSQSSNSHRGWEILRRNTLGHLNLGLDLGEGDGEEVYHF
notes: TRPV5, rabbit, cloned into a pcDNA5 vector with an N-terminal GFP tag; also called eGFP-TRPV5; source: HEK293, transfected, in lysate; in living cells for single molecule photobleaching; not shown: GFP, N-terminal, kept
stoichiometry N [1]: 4

IC50 [2]: 5.2 µM
B2: TRPV5 distal helix peptide (peptide)
peptide: {Biotin‑C6}-QSSNSHRGWEILRRNTLGHL
notes: TRPV5 distal C-terminal helix; the limits are counted from W702, the residue changed in the printed W702A peptide; also called distal peptide; distal TRPV5 peptide; source: synthetic peptide, bought: EMC microcollections GmbH
